From paper PMC3630103 come the findings set out here.

The target of assay [1] is CHIKV-IbH35 virus (West African genotype), envelope glycoproteins E2-E1 (Chikungunya virus (strain IbH35)).
For assay [2], the target named is CHIKV-RSU1 virus (Asian genotype), envelope glycoproteins E2-E1 (Chikungunya virus (strain RSU1)).

B1: CHK-263 (mouse monoclonal antibody) (antibody, V domains shown)
VH: QVQLQQSGAELVKPGASVKISCKASGYAFSSYWMNWVKQRPGKGLEWIGQIYPGDGDTNYNGKFKGKATLTADKSSSTAYMQLSSLTSEDSAVYFCARGGLTIDYWGQGTTLTVSS
VL: DIVLTQSPATLSVTPGDSVSLSCRASQSISDNLHWYQQKSHESPGLLIKYASQSISGIPSRFSGSGSGTDFTLSINSVETEDFGMYFCQQSNSWPYTFGGGTKLEIK
On to B1, for which, in assay [1], the EC50 of neutralisation of CHIKV-IbH35 (FRNT on Vero cells) was found to be 0.002 µg/mL and the EC90 of neutralisation of CHIKV-IbH35 (FRNT on Vero cells) was found to be 0.051 µg/mL. In assay [2], the EC50 of neutralisation of CHIKV-RSU1 (FRNT on Vero cells) turned out to be 0.004 µg/mL and the EC90 of neutralisation of CHIKV-RSU1 (FRNT on Vero cells) was 0.048 µg/mL.

B2: CHK-102 (mouse monoclonal antibody) (antibody, V domains shown)
VH: QVQLQQSGAELVKPGASVKISCKTSGYAFSSFWMHWVKQRPGKGLEWIGQIYPGDGDTNYNGKFKDKATLTADKSSNTAYMQLTSLTSEDSAVYFCARNLLFDYWGQGTTLTVSS
VL: EILMTQSPAILSVSPGERVSFSCRASQSIGSNIHWYQQRTNGSPRLLIKYASESISGIPSRFSGSGSGTDFTLSINSVESEDIADYYCQQNNIWPFTFGSGTKLEIK
For the molecule B2, in assay [1], the EC50 of neutralisation of CHIKV-IbH35 (FRNT on Vero cells) came to 0.006 µg/mL and the EC90 of neutralisation of CHIKV-IbH35 (FRNT on Vero cells) turned out to be 0.104 µg/mL. In assay [2], this molecule showed an EC50 of neutralisation of CHIKV-RSU1 (FRNT on Vero cells) of 0.005 µg/mL and an EC90 of neutralisation of CHIKV-RSU1 (FRNT on Vero cells) of 1.32 µg/mL.

B3: CHK-166 (mouse monoclonal antibody) (antibody, V domains shown)
VH: EVRLVESGGGLEQPGGSLKLSCAASGFTFSDYFMYWVRQTPEKRLEWVAYISNGGISTFYSDAVKGRFTISRDNARNTLYLQMSRLKSEDTAIYYCVRQVYGQGYFDYWGQGTTLAVSS
VL: QIVLIQSPAIMSASLGERVTMTCTASSSVSSSYLHWYQQKPGSSPKLWIYSSFSLASGVPARFSGSGSGTSYSLTISTMEAEDAATYYCHQYLRSPWTFGGGSKLEIK
For B3, in assay [1], the EC50 of neutralisation of CHIKV-IbH35 (FRNT on Vero cells) turned out to be 0.082 µg/mL and the EC90 of neutralisation of CHIKV-IbH35 (FRNT on Vero cells) was found to be 2.58 µg/mL. Further, in assay [2], the EC50 of neutralisation of CHIKV-RSU1 (FRNT on Vero cells) was 0.04 µg/mL and the EC90 of neutralisation of CHIKV-RSU1 (FRNT on Vero cells) was 2.18 µg/mL.

B4: CHK-152 (mouse monoclonal antibody) (antibody, V domains shown)
VH: QVQLQQPGAALVKPGASAMMSCKASGYTFTSYWITWVKQRPGQGLEWIGDIYPGTGRTIYKEKFKTKATLTVDTSSSTAFMQLNSLTSEDSAVYYCARGYGSPYYALDYWGQGTSVTVSS
VL: DIVLTQSPASLAVSQGQRATISCKASQSVDYDGDSYVNWYQQKPGQSPKLLIYDASNLESGIPARFSGSGSGTDFTLNIHPVEEEDVATYYCQESNEDPRTFGGGTKLEIK
Regarding B4, in assay [1], the EC50 of neutralisation of CHIKV-IbH35 (FRNT on Vero cells) was determined as 0.001 µg/mL and the EC90 of neutralisation of CHIKV-IbH35 (FRNT on Vero cells) was 0.006 µg/mL. Also, in assay [2], the EC50 of neutralisation of CHIKV-RSU1 (FRNT on Vero cells) stood at 0.003 µg/mL and the EC90 of neutralisation of CHIKV-RSU1 (FRNT on Vero cells) was 0.015 µg/mL.
